Measured values taken from patent US20030186920A1.

T1: bovine Flt-1 (VEGFR-1), endogenous on bovine aortic endothelial cells (BAEC) (bovine)
T1 sequence: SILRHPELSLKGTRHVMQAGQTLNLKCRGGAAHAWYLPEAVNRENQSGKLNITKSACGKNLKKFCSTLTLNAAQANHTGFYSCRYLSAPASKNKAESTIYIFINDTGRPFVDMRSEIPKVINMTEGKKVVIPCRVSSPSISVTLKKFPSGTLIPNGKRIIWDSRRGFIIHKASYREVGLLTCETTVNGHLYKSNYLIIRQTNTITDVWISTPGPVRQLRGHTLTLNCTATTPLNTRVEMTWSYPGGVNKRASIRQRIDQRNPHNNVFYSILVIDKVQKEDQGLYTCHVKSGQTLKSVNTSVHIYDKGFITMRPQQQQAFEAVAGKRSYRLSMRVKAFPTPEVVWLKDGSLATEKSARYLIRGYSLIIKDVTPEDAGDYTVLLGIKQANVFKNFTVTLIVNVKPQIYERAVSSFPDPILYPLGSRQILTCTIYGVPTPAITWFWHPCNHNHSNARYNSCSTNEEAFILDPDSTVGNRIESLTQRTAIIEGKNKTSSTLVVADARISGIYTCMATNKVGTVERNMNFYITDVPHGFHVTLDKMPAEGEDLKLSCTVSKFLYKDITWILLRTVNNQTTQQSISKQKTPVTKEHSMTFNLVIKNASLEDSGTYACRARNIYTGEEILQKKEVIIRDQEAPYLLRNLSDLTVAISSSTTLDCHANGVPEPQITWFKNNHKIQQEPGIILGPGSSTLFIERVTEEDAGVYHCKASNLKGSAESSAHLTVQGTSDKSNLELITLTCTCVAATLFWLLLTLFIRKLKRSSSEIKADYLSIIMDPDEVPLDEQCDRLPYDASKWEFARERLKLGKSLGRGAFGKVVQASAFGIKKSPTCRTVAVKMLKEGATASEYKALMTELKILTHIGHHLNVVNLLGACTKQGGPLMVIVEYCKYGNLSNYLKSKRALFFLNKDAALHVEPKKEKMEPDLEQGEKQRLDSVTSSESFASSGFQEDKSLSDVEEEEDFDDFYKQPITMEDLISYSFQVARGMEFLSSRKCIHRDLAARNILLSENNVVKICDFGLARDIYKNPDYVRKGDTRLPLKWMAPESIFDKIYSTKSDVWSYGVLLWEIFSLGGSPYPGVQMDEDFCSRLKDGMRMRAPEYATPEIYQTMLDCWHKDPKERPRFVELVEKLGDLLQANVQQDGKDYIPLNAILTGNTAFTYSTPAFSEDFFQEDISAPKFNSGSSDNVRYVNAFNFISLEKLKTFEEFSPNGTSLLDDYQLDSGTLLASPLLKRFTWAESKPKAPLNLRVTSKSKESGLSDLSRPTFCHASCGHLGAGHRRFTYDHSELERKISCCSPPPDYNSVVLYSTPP


Columns and labels:
Assay in all cases: cell-based or functional assay
[1] = biological target: T1, bovine Flt-1 (VEGFR-1), endogenous on bovine aortic endothelial cells (BAEC) (bovine)
[2] = biological target: bovine Flk-1 (VEGFR-2), endogenous on bovine aortic endothelial cells (BAEC) (bovine)
[3] = biological target: T1, bovine Flt-1 (VEGFR-1), endogenous on bovine aortic endothelial cells (BAEC) (bovine); remark: listed apart in the source

Row | Molecule | Flt-1 phosphorylation in BAEC stimulated with VEGF (10^-9 M), anti-phosphotyrosine Western blot of immunoprecipitated receptor (fold over PBS-treated cells) [1] | BAEC migration (modified Boyden chamber, 5 h), VEGF 2.5x10^-10 M (% increase over PBS-stimulated cells) [2] | BAEC migration (modified Boyden chamber, 5 h), VEGF 10^-9 M (% increase over PBS-stimulated cells) [2] | BAEC migration (modified Boyden chamber, 5 h), VEGF 10^-10 M (% increase over PBS-stimulated cells) [2] | BAEC proliferation (cell count at 72 h), VEGF 2.5x10^-10 M (% increase over DMEM/1% FBS) [2] | BAEC proliferation (cell count at 72 h), VEGF 10^-10 M (% increase over DMEM/1% FBS) [2] | BAEC proliferation (cell count at 72 h), VEGF 10^-11 M (% increase over DMEM/1% FBS) [2] | Flk-1 phosphorylation in BAEC stimulated with VEGF (10^-9 M), anti-phosphotyrosine Western blot of immunoprecipitated receptor (fold over PBS-treated cells) [2] | PAF synthesis by BAEC (3H-acetate incorporation, 15 min), VEGF 10^-8 M (fold over PBS-treated cells) [2] | PAF synthesis by BAEC (3H-acetate incorporation, 15 min), VEGF 10^-9 M (fold over PBS-treated cells) [2] | PAF synthesis by BAEC (3H-acetate incorporation, 15 min), VEGF 10^-10 M (fold over PBS-treated cells) [2] | PAF synthesis by BAEC (3H-acetate incorporation, 15 min), PlGF 10^-8 M (% increase over PBS-treated cells) [3]
1 | human recombinant vascular growth factor, VEGF165 (PeproTech Inc.) (from UniProt P15692 27-191) (ligand) | 1.5 | 83 | 130 | 46 | 219 | 183 | 62 | 13.2 | 35.9 | 20.4 | 7.2 | –
2 | human placenta growth factor, PlGF152 (R & D Systems) (ligand, UniProt P49763-3 19-170, looked up) LPAVPPQQWALSAGNGSSEVEVVPFQEVWGRSYCRALERLVDVVSEYPSEVEHMFSPSCVSLLRCTGCCGDENLHCVPVETANVTMQLLKIRSGDRPSYVELTFSQHVRCECRPLREKMKPERRRPKGRGKRRREKQRPTDCHLCGDAVPRR | – | – | – | – | – | – | – | – | – | – | – | 67
